Numbering of substitutions follows the chain as printed. Numbers in names are those of the source. One block for each binder: values may come before it.
How the values were obtained:
[1] = target: T1, adenosine A2A receptor (Homo sapiens (Human), UniProt P29274 1-412); experiment: cell-based or functional assay
[2] = target: T1, adenosine A2A receptor; experiment: flow cytometry titration 0.05-100 nM IgG; grey series read as HEK293-A2a cells
Description: Flow cytometry data showing binding to HEK293-A2a cells using immunoglobulins from variant libraries were generated using 100 nM IgG and compared to detected binding in parent cells. […] Selected variants were assessed for binding at concentrations titrated from 100 nM. […] Binding curves are plotted with IgG concentration vs. MFI (mean fluorescence intensity). […] Selected variants were assessed for binding at concentrations titrated from 100 nM. […] Binding curves are plotted with IgG concentration vs. MFI (mean fluorescence intensity).

[3] = target: T1, adenosine A2A receptor; experiment: flow cytometry cell-binding titration 0.05-100 nM IgG; panel title 'Synthetic Library to A2a protein' (panning group)
[4] = target: T1, adenosine A2A receptor; experiment: flow cytometry cell-binding titration 0.05-100 nM IgG
[5] = target: T1, adenosine A2A receptor; experiment: flow cytometry cell-binding titration 0.05-100 nM IgG; panel title 'Immune Library to A2a protein + ZM241385' (panning group)

T1 sequence (P29274 whole entry): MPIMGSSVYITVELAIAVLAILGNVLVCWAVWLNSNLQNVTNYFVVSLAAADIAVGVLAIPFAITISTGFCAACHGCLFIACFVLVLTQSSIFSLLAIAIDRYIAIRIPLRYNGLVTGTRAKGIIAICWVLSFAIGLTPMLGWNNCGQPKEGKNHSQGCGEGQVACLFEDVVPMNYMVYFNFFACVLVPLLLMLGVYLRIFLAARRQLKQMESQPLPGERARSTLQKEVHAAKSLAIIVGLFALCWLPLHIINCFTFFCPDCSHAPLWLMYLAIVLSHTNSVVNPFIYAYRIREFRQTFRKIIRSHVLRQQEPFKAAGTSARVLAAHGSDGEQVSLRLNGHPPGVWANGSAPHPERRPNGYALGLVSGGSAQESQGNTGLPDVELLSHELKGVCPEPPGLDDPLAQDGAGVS

IC50 (read off the curve), A2A antagonistic cAMP assay, RFU ratio 665/615 nm, 0.5 uM NECA [1]: ~3 nM
B1: A2A - 53 (antibody, V domains shown)
VH: EVQLVESGGGLVKPGGSLRLSCAASGFNIIDDYMHWVRQAPGKGLEWVGMITDTGEPTDADSVKGRFTISRDNSKNTLYLQMNSLRAEDTAVYYCVYDYIYAMDYWGQGTLVTVSS
VL: DIQMTQSPSSLSASVGDRVTITCKASQNMGSNVAWYQQKPGKAPKLLIYSASHRSSGVPSRFSGSGSGTDFTLTISSLQPEDFATYYCQQWNYPRITFGQGTKLEIK

EC50 (read off the curve) [2]: ~4 nM
B2: A2A-9 (antibody, V domains shown)
VH: EVQLQQSGPGLVKPSQSLSLTCSVTGYSITSGYYWNWIRQFPGKKLEWMGYIRYDGSNNYNPSLKNRISITRDTSKNQFFLKLNSVTTDDTATYYCARVHHYYGSSYFDYWGQGTTLTVSS
VL: DIVMTQSQKFMSTSVGDRVSATCKASQNVGSSVAWFQQKPGQSPKALIYSTSYRYSGVPDRFTGSGSGTDFTLTISNVQSEDLAEYFCQQYNSYPLTFGAGTKLEIK
notes: Tested as IgG; also called A2AR variant A2A-9

binding result [3]: binds
B3: A2A-18 (antibody, V domains shown)
VH: EVQLVESGGGLVKPGGSLRLSCAASGFSFSGYAMSWVRQAPGKGLEWVSVISGSGGSTNYADSVKGRFTISRDNSKNTLYLQMNSLRAEDTAVYYCAAARGYPRWRLGRRYDYWGQGTLVTVSS
VL: DIQMTQSPSSLSASVGDRVTITCRASQSVTTYLNWYQQKPGKAPKLLIYSASSLQSGVPSRFSGSGSGTDFTLTISSLQPEDFATYYCQQTYATPWTFGGGTKVEIK
notes: tested as IgG

EC50 (read off the curve) [4]: ~6 nM
B4: A2A - 77 (antibody, V domains shown)
VH: QVQLQESGPGLVKPSGTLSLTCAVSGGSISSSNWWSWVRQPPGKGLEWIGEIYHSGNTNYNPSLKSRVTMSVDKSKNQFSLNLHSVTAADTAVYYCAREVVSGMIGTIFDYWGQGTLVTVSS
VL: ELVMTQSPSSLSASVGDRVTITCRASQRISSYLNWYQQKPGKAPKLLIYAASSLQSRVPSRFSGSGSGTDFTLTISSLQPEDFATYYCQQSYSTPLTFGGGTKLETK
notes: tested as IgG

binding result [5]: binds
B5: A2A - 81 (antibody, V domains shown)
VH: B4 VH with N57S, M70I, N82K, H84G, M104L, I105Y
VL: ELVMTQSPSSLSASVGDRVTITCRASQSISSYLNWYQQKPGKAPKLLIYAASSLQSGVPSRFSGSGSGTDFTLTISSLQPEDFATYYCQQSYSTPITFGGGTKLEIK
notes: tested as IgG

From US20210179724A1 (TWIST BIOSCIENCE, published 2021)
